According to publication doi:10.1101/2021.10.20.465058 (bioRxiv, 2021):

How the values were obtained:
cryo-EM structure [1] = molecular target: the molecule itself; assay: cryo-EM structure
native gel or EMSA = molecular target: the molecule itself; assay: native gel or EMSA
cryo-EM structure [2] = molecular target: the molecule itself; assay: cryo-EM structure; remark: listed apart in the source
[3] = molecular target: the molecule itself; assay: single-particle cryo-EM, 2D class averages only

B1: YdiK, AI-2 exporter from E. coli (natural protein, Escherichia coli K-12, UniProt P0AFS7 1-370, looked up)
chain: MVNVRQPRDVAQILLSVLFLAIMIVACLWIVQPFILGFAWAGTVVIATWPVLLRLQKIMFGRRSLAVLVMTLLLVMVFIIPIALLVNSIVDGSGPLIKAISSGDMTLPDLAWLNTIPVIGAKLYAGWHNLLDMGGTAIMAKVRPYIGTTTTWFVGQAAHIGRFMVHCALMLLFSALLYWRGEQVAQGIRHFATRLAGVRGDAAVLLAAQAIRAVALGVVVTALVQAVLGGIGLAVSGVPYATLLTVLMILSCLVQLGPLPVLIPAIIWLYWTGDTTWGTVLLVWSGVVGTLDNVIRPMLIRMGADLPLILILSGVIGGLIAFGMIGLFIGPVLLAVSWRLFAAWVEEVPPPTDQPEEILEELGEIEKPNK
stoichiometry N (cryo-EM structure [1]): 5

B2: TqsA (transporter of quorum-sensing signal AI-2) from E. coli (natural protein, Escherichia coli K-12, UniProt P0AFS5 1-344, looked up)
chain: MAKPIITLNGLKIVIMLGMLVIILCGIRFAAEIIVPFILALFIAVILNPLVQHMVRWRVPRVLAVSILMTIIVMAMVLLLAYLGSALNELTRTLPQYRNSIMTPLQALEPLLQRVGIDVSVDQLAHYIDPNAAMTLLTNLLTQLSNAMSSIFLLLLTVLFMLLEVPQLPGKFQQMMARPVEGMAAIQRAIDSVSHYLVLKTAISIITGLVAWAMLAALDVRFAFVWGLLAFALNYIPNIGSVLAAIPPIAQVLVFNGFYEALLVLAGYLLINLVFGNILEPRIMGRGLGLSTLVVFLSLIFWGWLLGPVGMLLSVPLTIIVKIALEQTAGGQSIAVLLSDLNKE
stoichiometry N (cryo-EM structure [1]): 5

B3: PerM, AI-2 exporter from E. coli (natural protein, Escherichia coli K-12, UniProt P0AFI9 1-353, looked up)
chain: MLEMLMQWYRRRFSDPEAIALLVILVAGFGIIFFFSGLLAPLLVAIVLAYLLEWPTVRLQSIGCSRRWATSIVLVVFVGILLLMAFVVLPIAWQQGIYLIRDMPGMLNKLSDFAATLPRRYPALMDAGIIDAMAENMRSRMLTMGDSVVKISLASLVGLLTIAVYLVLVPLMVFFLLKDKEQMLNAVRRVLPRNRGLAGQVWKEMNQQITNYIRGKVLEMIVVGIATWLGFLLFGLNYSLLLAVLVGFSVLIPYIGAFVVTIPVVGVALFQFGAGTEFWSCFAVYLIIQALDGNLLVPVLFSEAVNLHPLVIILSVVIFGGLWGFWGVFFAIPLATLIKAVIHAWPDGQIAQE
stoichiometry N (native gel or EMSA): 2

B4: Aq_740, AI-2 exporter from Aquifex aeolicus (natural protein, UniProt O66948 1-353, looked up)
chain: MNKLSLFVYLFFFLSFLFLFLYLLQPFFNPIVWAIVFGIVLYPLYGFIKRKLKSENLAAFLVIFIVLVAIVIPFTIFAVITAQQIIVFSIKVVNFVQTHSVNDLINSLKEIPFLKEKRESLEPLLNYLQSEEFRRALINALNSILTFVGDRLRSYVYTAGTSLFHVFVFLLTLFFILRDGEKVLKEIINSIPMKREDLEEILKTIYRTVLAVIYGTVGTAVAQSIMGFIGYSLAGVEFALIWALITFFAAFVPPFGAAFVWVPMDIYLFTTKGIKEGLILLFFGTFLISTMDNIVRPLVMKQGIKLPYVALFFSTIGGLIKFGFIGVFLGPIILSTMLASVKIYRRRVIHSGI
stoichiometry N (cryo-EM structure [2]): 5

B5: YhhT, AI-2 exporter from E. coli (natural protein, Escherichia coli K-12, UniProt P0AGM0 1-349, looked up)
chain: METPQPDKTGMHILLKLASLVVILAGIHAAADIIVQLLLALFFAIVLNPLVTWFIRRGVQRPVAITIVVVVMLIALTALVGVLAASFNEFISMLPKFNKELTRKLFKLQEMLPFLNLHMSPERMLQRMDSEKVVTFTTALMTGLSGAMASVLLLVMTVVFMLFEVRHVPYKMRFALNNPQIHIAGLHRALKGVSHYLALKTLLSLWTGVIVWLGLELMGVQFALMWAVLAFLLNYVPNIGAVISAVPPMIQVLLFNGVYECILVGALFLVVHMVIGNILEPRMMGHRLGMSTMVVFLSLLIWGWLLGPVGMLLSVPLTSVCKIWMETTKGGSKLAILLGPGRPKSRLPG
stoichiometry N [3]: 5
